From PMC7226468, “Insight into the RssB-Mediated Recognition and Delivery of σ^s to the AAA+ Protease, ClpXP” (Biomolecules, 2020) come the findings set out here.

In general, stoichiometry N refers to the number of molecules, sites or subunits per partner or assembly.

Series [1] concerns the molecule itself. Kind of series: cross-linking; 0.005% (v/v) glutaraldehyde, 35 μg of each protein, 20 mM Hepes-KOH pH 7.5, 140 mM NaCl, 10 mM MgCl2, time course; SDS-PAGE and immunodecoration (anti-His, anti-RssB or anti-σS antisera).
In series [2] the target is T1, RssB (residues 1–337), untagged (E. coli, UniProt P0AEV1 1-337).
T1 sequence (looked up): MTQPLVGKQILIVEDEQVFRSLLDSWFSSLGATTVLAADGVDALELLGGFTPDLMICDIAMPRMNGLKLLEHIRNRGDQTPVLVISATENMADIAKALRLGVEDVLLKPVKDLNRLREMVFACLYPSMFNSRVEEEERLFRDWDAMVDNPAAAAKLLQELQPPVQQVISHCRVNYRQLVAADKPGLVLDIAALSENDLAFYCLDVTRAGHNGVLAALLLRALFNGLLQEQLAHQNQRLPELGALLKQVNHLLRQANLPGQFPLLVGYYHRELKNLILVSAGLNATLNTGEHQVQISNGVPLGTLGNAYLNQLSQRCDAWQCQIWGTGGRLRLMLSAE
Kind of series: cell-based or functional assay.

B1: RssBN (residues 1–128), untagged (domain or fragment, E. coli, UniProt P0AEV1 1-128, looked up)
chain: MTQPLVGKQILIVEDEQVFRSLLDSWFSSLGATTVLAADGVDALELLGGFTPDLMICDIAMPRMNGLKLLEHIRNRGDQTPVLVISATENMADIAKALRLGVEDVLLKPVKDLNRLREMVFACLYPSM
notes: RssB, E. coli, N-terminal receiver domain, residues 1-128; also called N-terminal domain of RssB; REC domain; source: Ub-fusion system, purified (IMAC, SEC)
Turning to B1, the “stoichiometry N” value in series [1] is 2.

B2: RssBC (residues 131–337), untagged (domain or fragment, E. coli, UniProt P0AEV1 131-337, looked up)
chain: SRVEEEERLFRDWDAMVDNPAAAAKLLQELQPPVQQVISHCRVNYRQLVAADKPGLVLDIAALSENDLAFYCLDVTRAGHNGVLAALLLRALFNGLLQEQLAHQNQRLPELGALLKQVNHLLRQANLPGQFPLLVGYYHRELKNLILVSAGLNATLNTGEHQVQISNGVPLGTLGNAYLNQLSQRCDAWQCQIWGTGGRLRLMLSAE
notes: RssB, E. coli, C-terminal effector domain, residues 131-337; also called C-terminal domain of RssB; effector domain; source: Ub-fusion system, purified (IMAC, SEC)
On to B2, for which the “stoichiometry N” value in series [1] turned out to be 2.

B3: His6-tagged zinc binding domain (ZBD) of E. coli ClpX (domain or fragment, UniProt P0A6H1 1-60, looked up)
chain: MTDKRKDGSGKLLYCSFCGKSQHEVRKLIAGPSVYICDECVDLCNDIIREEIKEVAPHRE
notes: Dimer by glutaraldehyde cross-linking; also called ClpXZBD; ecClpXZBD; source: purified ("Pure ecClpXZBD")
Consider B3, for which, in series [1], the “stoichiometry N” value amounted to 2. Also, the “half-life of σS in RssB-mediated turnover by 1.2 µM ClpXP with 2, 5 and 15 µM SspB added (from ~2.5 min without SspB)” value in series [2] is approximately 23 min.
